Source: US11433139B2, “Peptide vaccines against interleukin-31” (Zoetis Services LLC, priority 2018, dated 2022)

T1: canine IL-31 (Canis lupus familiaris, UniProt A0A8I3S3D1)
T1 construct: made in house; host or cells: CHO cells (CHROMOS ACE system)
T1 sequence (A0A8I3S3D1 24-159): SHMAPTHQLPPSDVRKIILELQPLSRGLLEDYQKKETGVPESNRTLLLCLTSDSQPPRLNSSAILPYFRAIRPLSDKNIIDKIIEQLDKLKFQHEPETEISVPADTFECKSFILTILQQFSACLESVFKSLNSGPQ

B1: mouse: feline 15H05 chimera: mouse 15H05 variable regions on feline IgG constant regions (antibody)
heavy: QVQLQQSAAELARPGASVKMSCKTSGYTFTSYTIHWIKQRPGQGLEWIGNINPTSGYTENNQRFKDKTTLTVDRSSNTAYLQLHSLTSEDSAVYFCARWGFKYDGEWSFDVWGAGTTVTVSSASTTAPSVFPLAPSCGTTSGATVALACLVLGYFPEPVTVSWNSGALTSGVHTFPAVLQASGLYSLSSMVTVPSSRWLSDTFTCNVAHPPSNTKVDKTVRKTDHPPGPKPCDCPKCPPPEAAGAPSIFIFPPKPKDTLSISRTPEVTCLVVDLGPDDSDVQITWFVDNTQVYTAKTSPREEQFNSTYRVVSVLPILHQDWLKGKEFKCKVNSKSLPSPIERTISKAKGQPHEPQVYVLPPAQEELSRNKVSVTCLIKSFHPPDIAVEWEITGQPEPENNYRTTPPQLDSDGTYFVYSKLSVDRSHWQRGNTYTCSVSHEALHSHHTQKSLTQSPGK
light: DIQMNQSPSSLSASLGDTITVTCRASQGISIWLSWYQQKPGNIPKVLINKASNLHIGVPPRFSGSGSGTHFTLTITSLQPEDIATYYCLQSQTYPLTFGGGTKLEINRSDAQPSVFLFQPSLDELHTGSASIVCILNDFYPKEVNVKWKVDGVVQNKGIQESTTEQNSKDSTYSLSSTLTMSSTEYQSHEKFSCEVTHKSLASTLVKSFQRSECQRE
B2: ZIL9: fully canine anti IL-31 antibody, VH SEQ ID NO: 83, VL SEQ ID NO: 85 (antibody, listed as Canis familiaris, V domains shown)
VH: EVQLVESGGDLVKPPGSLRLSCVASGFTFSSYDMTWVRQAPGKGLQWVADVNSGGTGTAYAVAVKGRFTISRDNAKKTLYLQMNSLRAEDTAVYYCAKLGVRDGLSVWGQGTLVTVSS
VL: SSVLTQPPSVSVSLGQTATISCSGESLNEYYTQWFQQKAGQAPVLVIYRDTERPSGIPDRFSGSSSGNTHTLTISGARAEDEADYYCESAVDTGTLVFGGGTHLAVL
B3: Feline 11E12 1.1: felinized 11E12, FEL_11E12_VH1 paired with FEL_11E12_VL1 (antibody, V domains shown)
VH: QVLLVQSGAEVKKPGASVKIFCKASGYSFTYYDINWLRQAPEQGLEWMGWIFPGDGGTKYNETFKGRLTLTADTSTNTVYMELSSLRSADTAMYYCARGGTSVIRDAMDYWGQGALVTVSS
VL: EIQMTQSPSSLSASPGDRVTITCRASESVDNYGISFMHWYQQKPGKVPKLLIYRASNLESGVPSRFSGSGSGTDFTLTISSLEPEDAATYYCQQSNKDPLTFGQGT
B4: mouse: feline 11E12 chimera: mouse 11E12 variable regions on feline IgG constant regions (antibody)
heavy: QVQLQQSGAELVKPGASVKLSCKASGYTFKYYDINWVRQRPEQGLEWIGWIFPGDGGTKYNETFKGKATLTTDKSSSTAYMQLSRLTSEDSAVYFCARGGTSVIRDAMDYWGQGTSVTVSSASTTAPSVFPLAPSCGTTSGATVALACLVLGYFPEPVTVSWNSGALTSGVHTFPAVLQASGLYSLSSMVTVPSSRWLSDTFTCNVAHPPSNTKVDKTVRKTDHPPGPKPCDCPKCPPPEAAGAPSIFIFPPKPKDTLSISRTPEVTCLVVDLGPDDSDVQITWFVDNTQVYTAKTSPREEQFNSTYRVVSVLPILHQDWLKGKEFKCKVNSKSLPSPIERTISKAKGQPHEPQVYVLPPAQEELSRNKVSVTCLIKSFHPPDIAVEWEITGQPEPENNYRTTPPQLDSDGTYFVYSKLSVDRSHWQRGNTYTCSVSHEALHSHHTQKSLTQSPGK
light: DIVLTQSPASLAVSLGQRATISCRASESVDNYGISFMHWYQQKPGQPPKLLIYRASNLESGIPARFSGSGSRTDFTLTINPVETDDVATYYCQQSNKDPLTFGAGTKLELKRSDAQPSVFLFQPSLDELHTGSASIVCILNDFYPKEVNVKWKVDGVVQNKGIQESTTEQNSKDSTYSLSSTLTMSSTEYQSHEKFSCEVTHKSLASTLVKSFQRSECQRE

Assays:
feline IL-31 [1] = experiment: Affinity of anti-IL-31 antibodies by surface plasmon resonance (Biacore), feline IL-31 surface; type: binding; details: IL-31 conjugated to the surface (FIG. 2)
Method: (§1) The affinity with which candidate mAbs bind canine and feline IL-31 was determined using surface plasmon resonance (SPR) on a Biacore system (Biocore Life Sciences (GE Healthcare), Uppsala, Sweden). To avoid affinity differences associated with differential surface preparation that can occur when immobilizing antibodies to surfaces; a strategy was employed where IL-31 was directly conjugated to the surface. Immobilization was obtained by amine coupling 5 μg/mL IL-31 using N-hydroxysuccinimide (NHS)/1-Ethyl-3-(3-dimethylaminopropyl) carbodiimide (EDC) chemistry. Chips were quenched with ethanolamine and the affinity with which all candidate mAbs bound to the immobilized IL-31 was evaluated. All curves were fit to a 1:1 model. Affinity constants (KD) less than 1×10^−11M (1E-11 M) are below the lower limit of quantitation of detection for the instrument. Results for affinity measurements are described herein.
Target sequence in this assay (as listed by the source): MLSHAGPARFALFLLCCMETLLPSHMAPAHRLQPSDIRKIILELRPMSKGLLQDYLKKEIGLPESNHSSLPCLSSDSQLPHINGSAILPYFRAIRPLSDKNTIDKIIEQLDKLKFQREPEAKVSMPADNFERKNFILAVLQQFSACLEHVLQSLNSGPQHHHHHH

canine IL-31 [2] = experiment: Affinity of anti-IL-31 antibodies by surface plasmon resonance (Biacore), canine IL-31 surface; type: binding; details: IL-31 conjugated to the surface (FIG. 2)
Method: as §1

feline IL-31 [3] = experiment: Inhibition of feline IL-31 induced pSTAT3 signaling in feline FCWF4 macrophage-like cells; type: cell-based; details: for potency (IC50) against feline IL-31 in feline FCWF4 cells: 0.2 μg/mL feline IL-31, pSTAT3, FCWF4 cells (FIG. 3)
Method: (§2) To identify candidates with inhibitory activity, antibodies were assessed for their ability to affect IL-31-mediated STAT3 phosphorylation in either a canine or feline cell-based assay. STAT3 phosphorylation was determined in canine DH-82 (ATCC® CRL-10389™) or feline FCWF4 macrophage-like cells (ATCC CRL-2787). DH82 and FCWF4 cells were primed with canine interferon gamma (R&D Systems, Minneapolis, Minn.) at 10 ng/mL for 24 hours or feline interferon gamma (R&D Systems, Minneapolis, Minn.) at 125 ng/mL for 96 hours, respectively, to increase receptor expression. Both cell types were serum starved for 2 hours prior to IL-31 and mAb treatment. Using two independent methods, all candidate mAbs were evaluated for their ability to inhibit either 1 μg/mL canine or 0.2 μg/mL feline IL-31 induced STAT3 phosphorylation. […] To ensure complex formation, a one hour co-incubation of mAb and IL-31 cytokine prior to cell stimulation was completed. IL-31 cell stimulation was carried out for five minutes. STAT3 phosphorylation was measured using AlphaLISA SureFire ULTRA™ technology (Perkin Elmer, Waltham, Mass.). In the case where antibody concentration and purity are unknown, hybridoma supernatants were qualitatively measured for their ability to inhibit STAT3 phosphorylation following a 1 hour co-incubation with […] IL-31. The potency of individual monoclonal antibodies defined by their ability to inhibit IL-31 mediated STAT3 phosphorylation in these assays was considered the key selection criteria for further advancement of select antibodies. The term potency refers to the IC50 value calculated from these assays and is the concentration of the antibody where signaling induced by IL-31 is reduced to one half its maximal value.

canine IL-31 [4] = target: T1, canine IL-31; experiment: Inhibition of canine IL-31 induced pSTAT3 signaling in canine DH-82 and feline FCWF4 cells; type: cell-based; details: canine IL-31; canine and feline cell types, cell type of the values not specified
Method: as §2

feline IL-31 [5] = experiment: IL-31 induced pruritus model in cats, antibody pre-bound to feline IL-31; type: in vivo, cat
Method: To test the preliminary efficacy of mouse: feline 11E12 chimera, mouse: feline 15H05 chimera, and felinized 11 E12 (Feline 11E12 1.1), an IL-31 induced pruritus model in cats was developed. Following an intravenous dose of 0.5 μg/kg feline IL-31 (SEQ ID NO: 159; Feline_IL-31_E_coli), the corresponding nucleotide sequence for which is (SEQ ID NO: 160; Feline_IL-31_E_coli), cats will portray transient pruritic behavior that includes (but is not limited to) licking, chewing, scratching, and head or body shaking. Rubbing up against the cage was not considered a pruritic activity. Pruritic observations take place by a trained investigator for 30 minutes prior to administration of the IL-31 protein and for 1 hour following. For this study, a baseline challenge with feline IL-31 was performed up to 1 month prior to dosing with antibody. On day zero, a 0.5 mg/kg antibody dose was combined with 0.5 μg/kg of feline IL-31 at room temperature for 60 minutes prior to injecting the pre-bound complex into each animal. A “no mAb” control was included for a control. The dose of mAb represents a gross molar excess of antibody to cytokine. Pruritic activity was monitored as described on days 0, 7, and 21.
Target sequence in this assay (as listed by the source): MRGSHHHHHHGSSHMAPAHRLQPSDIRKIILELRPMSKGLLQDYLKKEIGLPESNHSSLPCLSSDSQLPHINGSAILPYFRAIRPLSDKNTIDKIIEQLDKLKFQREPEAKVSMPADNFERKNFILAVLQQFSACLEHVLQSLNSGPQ

equine IL-31 = experiment: Biacore binding, single test concentration of antibody, equine IL-31 surface
Sequence of equine IL-31 (as listed by the source): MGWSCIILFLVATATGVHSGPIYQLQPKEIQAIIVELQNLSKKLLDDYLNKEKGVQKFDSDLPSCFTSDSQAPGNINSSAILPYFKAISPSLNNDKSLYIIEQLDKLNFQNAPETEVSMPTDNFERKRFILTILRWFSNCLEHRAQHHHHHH
Method: For the indirect ELISA, binding (ELISA OD) to wildtype feline IL-31 and a feline IL-31 15H05 mutant which had mutations in the monoclonal antibody 15H05 epitope region was assessed. To confirm binding, biacore analysis was performed using canine, feline, equine, human, the feline 15H05 mutant, and feline 11E12 mutant IL-31 proteins as surfaces and a single test concentration of antibody. The feline IL-31 11E12 mutant had mutations in the monoclonal antibody 11E12 epitope region.
For the indirect ELISA method, antibody binding to wildtype and feline IL-31 15H05 mutant proteins was assessed. […] In comparison, the 11E12 antibody bound to the wild-type feline IL-31 and its binding was not impacted by the mutations in the 15H05 epitope region as evidenced by the data in FIG. 4. To confirm binding, biacore analysis was performed using canine, feline, equine, human, feline 15H05 mutant, and feline 11E12 mutant IL-31 proteins as surfaces and a single test concentration of antibody. Similar to ELISA observations, all antibodies tested bound to wildtype feline IL-31. In agreement with the data described above in this section, mouse antibodies 11 E12 and 15H05 both bound to canine and feline IL-31 surfaces. […] From this group of nine fully canine antibodies, only ZIL1 and ZIL9 cross-reacted with equine IL-31. Of note, antibody 15H05 was the only one of all assayed herein that bound to canine, feline, and equine IL-31 indicating some level of epitope conservation across the three species. In contrast, none of the antibodies described herein bound to human IL-31. Additional biacore surfaces were used to verify ELISA observations showing differential binding of antibodies to wildtype feline IL-31 and two proteins with mutations in the 15H05 (15H05 mutant) or 11 E12 (11E12 mutant) epitopes. […] Differing results can be attributed to differences in the two assay methodologies.

feline IL-31 [6] = experiment: Inhibition of feline IL-31 induced pSTAT3 signaling in canine DH-82 cells; type: cell-based; details: feline IL-31, pSTAT3, canine DH82 cells (FIG. 3)
Method: as §2
Target sequence in this assay (as listed by the source): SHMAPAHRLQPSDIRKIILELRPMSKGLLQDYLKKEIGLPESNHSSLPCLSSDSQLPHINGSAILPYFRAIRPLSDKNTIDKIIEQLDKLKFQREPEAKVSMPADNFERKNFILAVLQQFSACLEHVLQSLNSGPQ

[7] = 0.5 mg/kg antibody pre-bound with 0.5 μg/kg feline IL-31, days 0, 7, 21

Molecule | affinity (KD) to feline IL-31 (feline IL-31 [1]) | affinity (KD) to canine IL-31 (canine IL-31 [2]) | fold increased IC50 relative to mouse: feline 11E12 chimera (feline IL-31 [3]; feline IL-31 induced pSTAT3 signaling in feline FCWF4 cells) | IC50 against canine IL-31 (canine IL-31 [4]) [µg/mL] | pruritus scores compared to placebo control (feline IL-31 [5]; [7]) | binding to equine IL-31 (Biacore) (equine IL-31) | potency (IC50) against feline IL-31 in feline FCWF4 cells (feline IL-31 [3]) | potency (IC50) against feline IL-31 in feline FCWF4 cells (feline IL-31 [3]; listed as Felinized 11E12 1.1) | potency (IC50) against feline IL-31 in canine DH82 cells (feline IL-31 [6]) | pruritus scores compared to placebo control (feline IL-31 [5]; 0.5 mg/kg antibody pre-bound with 0.5 μg/kg feline IL-31, days 0, 7, 21, 0.5 mg/kg) | pruritus scores compared to placebo control (feline IL-31 [5]; 0.5 mg/kg antibody pre-bound with 0.5 μg/kg feline IL-31, days 0, 7, 21, listed as feline 11E12 1.1, 0.5 mg/kg)
B1 | lost some affinity | lost some affinity | approximately 2 fold | 28.61 | significant improvement (p<0.05) |  |  |  |  |  | 
B2 |  |  |  |  |  | cross-reacted |  |  |  |  | 
B3 | loss of affinity | loss of affinity |  |  |  |  | loss of potency | approximately a two-fold decrease in potency | loss of potency | did not reduce pruritus at day zero | lack of efficacy
B4 | slightly superior | slightly superior |  |  | did not achieve a significant reduction in pruritus at any timepoint |  |  |  |  |  | 
